The nature of the data set: label from the status in PepcDB records.
Regarding “MNTSHVRVVTHMCGFLVWLYSLSMLPPMVVALFYKEKSLFVFFITFVIFFCIGGGAWYTTKKSGIQLRTRDGFIIIVMFWILFSVISAFPLWIDSELNLTFIDALFEGVSGITTTGATVIDDVSSLPRAYLYYRSQLNFIGGLGVIVLAVAVLPLLGIGGAKLYQSEMPGPFKDDKLTPRLADTSRTLWITYSLLGIACIVCYRLAGMPLFDAICHGISTVSLGGFSTHSESIGYFNNYLVELVAGSFSLLSAFNFTLWYIVISRKTIKPLIRDIELRFFLLIALGVIIVTSFQVWHIGMYDLHGSFIHSFFLASSMLTDNGLATQDYASWPTHTIVFLLLSSFFGGCIGSTCGGIKSLRFLILFKQSKHEINQLSHPRALLSVNVGGKIVTDRVMRSVWSFFFLYTLFTVFFILVLNGMGYDFLTSFATVAACINNMGLGFGATASSFGVLNDIAKCLMCIAMILGRLEIYPVIILFSGFFWRS”, the protein production result was “failed”.

For “MSCYSDSITPDSFSGIVFALEGVSRSIVLINGPSGCKYYHSAVSDNQTLRQYEFDPFNYSEKWYFGQPRVPCTYLDSDDYIYGSTDKLTEALEFLRDNAPFDLLCIVNSPGAALIGDDLRGIAGRIIKEKSVVIIETPDFSRDICTGYETAAAALLDSLPLNSAARSQPNTVNILGLSIFHKYFAGDILELRRLLELCGVTVNCFLCADCDIDTIRRIPEAALNIVIHPEYGMKTARCLKERYGTPFYLCDGPPIGFSATEKFIGGICTALGCDSSLFRRESERARARAYAYISQVNSLTGLPKGVHFAVEGTYSELYAYTSFLVRYFGMIPEALSVLNEGSDCCKERLQALLNGLALPQALDRDLTETDSELVFASGNTIAKLKLRRHMFSGIEISLPSLGYIDVIPKTHIGLQGALMLTEQVLNGLAF”, the protein production result was “failed”.

In the case of “MSKHTVLFELGCEELPPKSLKTLRDALQAETVKGLKDAGLAFASIEAYAAPRRLALKIVDVDGAQADTQKRFDGPAVQAAYDAEGKPTKALEGFMRGQGITADQVSTFQAGKVEKVCYLKDVKGQTLDALLPQILQTALDNLPIAKRMRSAASRTEFVRPVKWVVLLKDDQIIEATIQDHQAGNVTYGHRFHAPEAVTLAHANDYLAALEKAYVVANFEKRQATIQEQVKKLADEVNATAIVPADLLDEVTSLVEWPVALRANFEERFLAVPQEALITTMQDNQKYFCLINSEGKLQPYFITVSNIESKDPTQIIEGNEKVVRPRLSDAEFFFLQDQKQPLASRKEKLANMVFQAQLGTLWDKSTRIAKLAVALSPITGANPADAEKAALLAKCDLTSELVGEFPELQGIAGTYYARIEGENTEVSEALGEQYLPKFAGDVLPKTKTGTTIALADRLDTLVGIFGIGQAPTGSKDPFALRRSAIGILRLIIENELDVTIEELVNLALQGYGDIVKDHDKTLADAVAFLEGRYRAKYEDQGVAVDVLQAVQALAPKS”, the protein production entry is recorded as “failed”.

With “MTSRTRDTDTDRATDTDTDRATATLDHAMARSQGLDTLLRDLTDRAVVQVPGAVACSVTVRRADRLMTLAGSTGLPSGLDLRQYENGSGPCVDAAESGDAQYCADLAEETRWPAYTEYALATGVRCVLALPLPIEGETGAALNLYGLVPGSLVQGLDAARAFAERAADAVNEALRIERRQASAADVRTALLSRSVIDQAVGMLMARERIDAHRALERLRRASQDRNVKLRDLCAQVVARASGGASHRGQ”, the protein production result is given as “failed”.

On to “MADWVTGKVTKVQNWTDALFSLTVHAPINPFTAGQFTKLGLEIDGERVQRAYSYVNAPDNPNLEFYLVTVPQGKLSPRLAALKPGDEVQVVSDASGFFVLDEVPDCETLWMLATGTAIGPYLSILQYGQDVARFKNLVLVHAARFAADLSYLPLMLELQQRYEGKLRIQTVVSRENVPGSLTGRVPALIENGELEKAVGLPMDKETSHVMLCGNPQMVRDTQQLLKETRQMTKHLRRRPGHMTAEHYW”, for which the protein production entry was “not failed”.

Take “MRMGVKDFAPSWFASVMGTGALALVSKSYSFKLPILEAFSKFLTYLNTIIFFVLLIPWLLRWIKYPSEAKKDLYHPVTSHFYGTMPIAMTIVAVNLAMFGYKEIALPLWILGSILVVIFAFLIPYLFFISEGVDVKTITPAWFIPPVGLIVIPLTSLPFVPSSVMWREVFIVLNYFGFGAGFFIYLALFAIVMRRFITHELLPPIMAPAVWINLGPLGAGAVALLNLAKIMPIAKSAFKAFAFILWGFGLWWLIMAILMTLHYLKNLHLPYSLAWWAFIFPLGAYVSATYNVGISIGITAMIEFGFALYWFLLALWLVTGIKTLVHDFSS”: the protein production entry is recorded as “failed”.

For the sequence “AIAAQKISEAHEHIAKAEKYLKTSFMKWKPDYDSAASEYAKAAVAFKNAKQLEQAKDAYLQEAEAHANNRSLFHAAKAFEQAGMMLKDLQRMPEAVQYIEKASVMYVENGTPDTAAMALDRAGKLMEPLDLSKAVHLYQQAAAVFENEERLRQAAELIGKASRLLVRQQKFDEAAASLQKEKSMYKEMENYPTCYKKCIAQVLVQLHRADYVAAQKCVRESYSIPGFSGSEDCAALEDLLQAYDEQDEEQLLRVCRSPLVTYMDNDYAKLAISLKVPGGGGGKKKPSASASAQPQEEEDDEYAGGLC”, the protein production entry was “failed”.

Turning to “MGQPSDLTESTLRFSSLDPLHPPVISQLTAIAKRIRRNSLHLPTIWQEAVDSIGSTLGVSRCLLLTKDFQSRHLQIEAEFCQPTVTAFAALIVPEESEIWRQLFEQHQPITLYNVQFQGEDLGGLWIFPTLYQDQANGYLCLQQVGPAPGPWHPETEALLQELAEQTGTAIAHATLYQELTQATKAAEEASRLKSEFLASTTHELRTPLNGIIGFLRLILDDMADSEAEKHEFVEEAYQSALLLLNLINDILDLAKIEAGRVGIELEVVDFSEVLQATENFALPQAQNKGLSFNLTAPNQGPLLVYGNQRWLLQVMLNIVGNAIKFTHEGGITVAVEVMPRTVLWEGVQKPGLLKVSVGDTGIGVSLEQQSKLFKKFVQIDGSHSKAYGGTGLGLVISQKLVETMGGKVAFFSMGEGLGSTVTFTVLLEELP”, the protein production entry is “failed”.

For “MRGIAIIFIVLGHSIYNSGEGFPVLLENLLRGGTALFVFISGYFFHRIFYKDFDYGKFMKNKVQNVLYPFLFVSIVGLFCLSLRWVFMEHQSLEQVLLSIFYTVRNGYILYPHWYIPFIMAVFLFSPVFLWFIRCSQQMRWTLFVLSCVVAILLHRPIGNVNFIHSVVYYLPFYLIGILYSQDEHIVTRYGSILSALAGIFLVVSLVEQSYIVQHVGNYHKAPFEYNGIDWQFIQKLSLCVLVLNFCDWLSQRSRLPWLIETAEMSFAIFFIHPLFDMLFNTTATIFRYRFPPDSWVTSILFSFGIFLFLMVSSMMTARLIKKRLGNRSRLFIGW”, the protein production entry is recorded as “failed”.

As for “MKVNPDFFPLTQMAQRFVDQLAQCRRLGLTVLEASEHHVLIELPYSTELIGYPDTGVIHGGVITTLMDTACGSAVVSAIFQKYQSLEISPTLDLRVDYMKPAQPHKSVYGFAECYKLSSNIAFTRAIAYQDSIDDPIAHAVGSFMRISPEMVGDAFRQALIGLEHHHHHH”, the protein production result was “not failed”.

On to “MDRSPERRTAVMIWGALVAGPALFLVVALALPLAGEPAPGIAQPLLLVLTGLVLVEVPLSWLWAVRARLAGKAGGEAISVEEQARTRLIIAAALCEGAALFAVVVFMVTRDARALPLFAIAFGALLAHYPGDRHWARLCRGSGAGSSAPPNRLMRG”, for which the protein production entry is reported as “failed”.

As to “MTKKILTTPIKDEDLADIKAGDIIYLNGHIVTCRDVAHRRLIEGGRELPVNVAGGAILHAGPIVRPIKGTEDKFEMVSVGPTTSMRMEKFEKEFIAKTGVKLIVGKGGMGKGTEEGCMEHKALHCVFPAGCAVVAAVCVEEIEDAQWRDLGMPETLWVCRVKEFGPLIVSIDTHGNNLFEQNKVIFNQRKEIVADEICKHVSFIK”, the protein production result is given as “failed”.

In the case of “FKAVTYVADPVDVTYQSLNVSVPVEIDGKAVDASHAPIVFSNAVGGYMPSSTAGNTGIGQGVNAKLSLASGFVVVDPGARGRTLVDTAGVYYGVAPAAIVDLKAAIRYLRHNKGRVPGDTDRIVATGVSAGGALTSLLGASGDSDRYAPYLQELGAADASDAVFAAAPYCPITDLEHADMAYEWNWGTNPLPTGAQVDQTLSKELRSGFAEYQASLNLRGKNGFGRITARNYDAYMVKTHLEPSATRYLGALPDADRAAYLTANPWITWSGGRASFGWGDFLTHVGARKKNVPSFDTFTLAAPENNLFGVATTKARHFTQWSLRKATGDDGARLDADLPEKIDLMNPMYFIEHQNPGRSRHWFIRVGTKDSDTSLTVVGNLTAGLENLGDDVDTYMYWDGGHGANQDAPDFITWIRSVSG”, the protein production result is listed as “failed”.

Values taken from a protein production outcome set (Wang et al. 2014).
